68 molecules from US20160250307A1 (IMMATICS BIOTECHNOLOGIES, published 2016) can be followed below.

The target in assay [1] is HLA-A*02 (human). As to the kind of experiment: UV-ligand exchange, anti-b2m ELISA; grade: exchange yield >=75%. Background: An ELISA detects its analyte on a solid surface through an enzyme-linked reagent.
Assay [2] deals with HLA-A*02 (human). As to the kind of experiment: UV-ligand exchange, anti-b2m ELISA; grade: exchange yield >=50%.

B1: GLFAPLVFL (peptide)
peptide: GLFAPLVFL
For the molecule B1, the peptide exchange yield in the assay with HLA-A*02 [1] was ≥ 75%.

B2: ALTSVVVTL (peptide)
peptide: ALTSVVVTL
Regarding B2, in the assay with HLA-A*02 [1], the peptide exchange yield was ≥ 75%.

B3: GLAFSLNGV (peptide)
peptide: GLAFSLNGV
With B3, the peptide exchange yield with HLA-A*02 [1] was ≥ 75%.

B4: FLLEQPEIQV (peptide)
peptide: FLLEQPEIQV
Turning to B4, the peptide exchange yield in the assay with HLA-A*02 [2] lay in the range of 50 to 75%.

B5: ALLGGNVRMML (peptide)
peptide: ALLGGNVRMML
As for B5, the peptide exchange yield with HLA-A*02 [2] fell in the range of 50 to 75%.

B6: RVIEHVEQV (peptide)
peptide: RVIEHVEQV
As for B6, in the assay with HLA-A*02 [1], the peptide exchange yield was ≥ 75%.

B7: GLFNAELLEA (peptide)
peptide: GLFNAELLEA
Molecule B7 had a peptide exchange yield with HLA-A*02 [2] of 50 to 75%.

B8: LLHGHIVEL (peptide)
peptide: LLHGHIVEL
In turn, B8 came in with a peptide exchange yield in the assay with HLA-A*02 [2] of 50 to 75%.

B9: ALSQVTLLL (peptide)
peptide: ALSQVTLLL
Turning to B9, the peptide exchange yield with HLA-A*02 [1] was ≥ 75%.

B10: LLLGERVAL (peptide)
peptide: LLLGERVAL
As to B10, the peptide exchange yield with HLA-A*02 [1] is ≥ 75%.

B11: ALLAEGITWV (peptide)
peptide: ALLAEGITWV
With B11, in the assay with HLA-A*02 [2], the peptide exchange yield was in the range of 50 to 75%.

B12: LLIDVVTYL (peptide)
peptide: LLIDVVTYL
In the case of B12, in the assay with HLA-A*02 [1], the peptide exchange yield was ≥ 75%.

B13: AVIGGLIYV (peptide)
peptide: AVIGGLIYV
For B13, the peptide exchange yield with HLA-A*02 [1] is ≥ 75%.

B14: GLYGRTIEL (peptide)
peptide: GLYGRTIEL
As for B14, the peptide exchange yield with HLA-A*02 [2] lay within 50 to 75%.

B15: KLYQEVEIASV (peptide)
peptide: KLYQEVEIASV
With B15, in the assay with HLA-A*02 [1], the peptide exchange yield was ≥ 75%.

B16: ALLEADVNIKL (peptide)
peptide: ALLEADVNIKL
With B16, the peptide exchange yield with HLA-A*02 [1] is ≥ 75%.

B17: KIAELLENV (peptide)
peptide: KIAELLENV
For the molecule B17, the peptide exchange yield with HLA-A*02 [1] is ≥ 75%.

B18: NLAEVVERV (peptide)
peptide: NLAEVVERV
On to B18, for which the peptide exchange yield with HLA-A*02 [1] was ≥ 75%.

B19: SLAEGTATV (peptide)
peptide: SLAEGTATV
Consider B19, for which the peptide exchange yield in the assay with HLA-A*02 [2] lay in the range of 50 to 75%.

B20: SLSAFLPSL (peptide)
peptide: SLSAFLPSL
As for B20, in the assay with HLA-A*02 [1], the peptide exchange yield was ≥ 75%.

B21: SLLPQLIEV (peptide)
peptide: SLLPQLIEV
As to B21, the peptide exchange yield with HLA-A*02 [1] was ≥ 75%.

B22: YLEPYLKEV (peptide)
peptide: YLEPYLKEV
On to B22, for which the peptide exchange yield in the assay with HLA-A*02 [1] was ≥ 75%.

B23: HLTEAIQYV (peptide)
peptide: HLTEAIQYV
Molecule B23 displayed a peptide exchange yield with HLA-A*02 [2] of 50 to 75%.

B24: ALDPKANFST (peptide)
peptide: ALDPKANFST
In the assay with HLA-A*02 [2], B24 had a peptide exchange yield of 50 to 75%.

B25: KLGAVFNQV (peptide)
peptide: KLGAVFNQV
With B25, the peptide exchange yield in the assay with HLA-A*02 [1] is ≥ 75%.

B26: ALTSISAGV (peptide)
peptide: ALTSISAGV
As for B26, in the assay with HLA-A*02 [1], the peptide exchange yield was ≥ 75%.

B27: ILADTFIGV (peptide)
peptide: ILADTFIGV
Consider B27, for which the peptide exchange yield with HLA-A*02 [2] lay within 50 to 75%.

B28: ALLETNPYLL (peptide)
peptide: ALLETNPYLL
As for B28, in the assay with HLA-A*02 [1], the peptide exchange yield was ≥ 75%.

B29: SLQESILAQV (peptide)
peptide: SLQESILAQV
As for B29, the peptide exchange yield with HLA-A*02 [2] lay within 50 to 75%.

B30: GLLSGLDIMEV (peptide)
peptide: GLLSGLDIMEV
With B30, in the assay with HLA-A*02 [1], the peptide exchange yield is ≥ 75%.

B31: VLMDKLVEL (peptide)
peptide: VLMDKLVEL
For B31, in the assay with HLA-A*02 [1], the peptide exchange yield was ≥ 75%.

B32: SLLEEPNVIRV (peptide)
peptide: SLLEEPNVIRV
In the case of B32, the peptide exchange yield with HLA-A*02 [1] is ≥ 75%.

B33: KLFSGDELLEV (peptide)
peptide: KLFSGDELLEV
As to B33, in the assay with HLA-A*02 [2], the peptide exchange yield lay in the range of 50 to 75%.

B34: WLIEDGKVVTV (peptide)
peptide: WLIEDGKVVTV
With B34, the peptide exchange yield with HLA-A*02 [1] was ≥ 75%.

B35: LLLDKLILL (peptide)
peptide: LLLDKLILL
Turning to B35, in the assay with HLA-A*02 [1], the peptide exchange yield is ≥ 75%.

B36: KLKETIQKL (peptide)
peptide: KLKETIQKL
With B36, in the assay with HLA-A*02 [2], the peptide exchange yield lay within 50 to 75%.

B37: KIDEKNFVV (peptide)
peptide: KIDEKNFVV
Regarding B37, the peptide exchange yield with HLA-A*02 [2] was in the range of 50 to 75%.

B38: GLSNLGIKSI (peptide)
peptide: GLSNLGIKSI
Take B38: the peptide exchange yield with HLA-A*02 [1] was ≥ 75%.

B39: RLFNDPVAMV (peptide)
peptide: RLFNDPVAMV
In the case of B39, in the assay with HLA-A*02 [1], the peptide exchange yield was ≥ 75%.

B40: ILNVDGLIGV (peptide)
peptide: ILNVDGLIGV
B40 had a peptide exchange yield with HLA-A*02 [2] of 50 to 75%.

B41: RLFADILNDV (peptide)
peptide: RLFADILNDV
On to B41, for which, in the assay with HLA-A*02 [1], the peptide exchange yield was ≥ 75%.

B42: TLGQFYQEV (peptide)
peptide: TLGQFYQEV
As to B42, the peptide exchange yield with HLA-A*02 [1] was ≥ 75%.

B43: LLLPLLPPLSP (peptide)
peptide: LLLPLLPPLSP
As for B43, in the assay with HLA-A*02 [2], the peptide exchange yield fell in the range of 50 to 75%.

B44: LLYEGKLTL (peptide)
peptide: LLYEGKLTL
In the case of B44, in the assay with HLA-A*02 [1], the peptide exchange yield was ≥ 75%.

B45: AMAEMKVVL (peptide)
peptide: AMAEMKVVL
Take B45: the peptide exchange yield in the assay with HLA-A*02 [2] was in the range of 50 to 75%.

B46: KLLDTMVDTFL (peptide)
peptide: KLLDTMVDTFL
With B46, in the assay with HLA-A*02 [1], the peptide exchange yield is ≥ 75%.

B47: GVLPGLVGV (peptide)
peptide: GVLPGLVGV
B47: the peptide exchange yield with HLA-A*02 [2] is 50 to 75%.

B48: ALAEALKEV (peptide)
peptide: ALAEALKEV
Consider B48, for which, in the assay with HLA-A*02 [1], the peptide exchange yield was ≥ 75%.

B49: QLHDFVMSL (peptide)
peptide: QLHDFVMSL
For B49, the peptide exchange yield in the assay with HLA-A*02 [1] was ≥ 75%.

B50: ALPTVLVGV (peptide)
peptide: ALPTVLVGV
For B50, the peptide exchange yield with HLA-A*02 [1] was ≥ 75%.

B51: ALDAGAVYTL (peptide)
peptide: ALDAGAVYTL
For the molecule B51, in the assay with HLA-A*02 [1], the peptide exchange yield is ≥ 75%.

B52: ALLGKLDAI (peptide)
peptide: ALLGKLDAI
As to B52, the peptide exchange yield in the assay with HLA-A*02 [1] is ≥ 75%.

B53: GLIHLEGDTV (peptide)
peptide: GLIHLEGDTV
In the assay with HLA-A*02 [2], B53 returned a peptide exchange yield of 50 to 75%.

B54: TLGQIWDV (peptide)
peptide: TLGQIWDV
Regarding B54, the peptide exchange yield in the assay with HLA-A*02 [1] is ≥ 75%.

B55: VLGEVKVGV (peptide)
peptide: VLGEVKVGV
On to B55, for which, in the assay with HLA-A*02 [1], the peptide exchange yield was ≥ 75%.

B56: KLHEEIDRV (peptide)
peptide: KLHEEIDRV
For the molecule B56, the peptide exchange yield with HLA-A*02 [2] was 50 to 75%.

B57: VMQDPEFLQSV (peptide)
peptide: VMQDPEFLQSV
With B57, the peptide exchange yield with HLA-A*02 [1] is ≥ 75%.

B58: SVYDGKLLI (peptide)
peptide: SVYDGKLLI
Regarding B58, the peptide exchange yield with HLA-A*02 [1] is ≥ 75%.

B59: VLIGSNHSL (peptide)
peptide: VLIGSNHSL
In the case of B59, the peptide exchange yield with HLA-A*02 [1] was ≥ 75%.

B60: GLLDPNVKSIFV (peptide)
peptide: GLLDPNVKSIFV
On to B60, for which, in the assay with HLA-A*02 [2], the peptide exchange yield fell in the range of 50 to 75%.

B61: TVGGSEILFEV (peptide)
peptide: TVGGSEILFEV
With B61, the peptide exchange yield with HLA-A*02 [1] is ≥ 75%.

B62: ALADVVHEA (peptide)
peptide: ALADVVHEA
In the assay with HLA-A*02 [2], B62 came in with a peptide exchange yield of 50 to 75%.

B63: AMGEKSFSV (peptide)
peptide: AMGEKSFSV
For the molecule B63, the peptide exchange yield in the assay with HLA-A*02 [1] is ≥ 75%.

B64: LLFPHPVNQV (peptide)
peptide: LLFPHPVNQV
As for B64, in the assay with HLA-A*02 [1], the peptide exchange yield was ≥ 75%.

B65: KILEETLYV (peptide)
peptide: KILEETLYV
Molecule B65 registered a peptide exchange yield with HLA-A*02 [2] of 50 to 75%.

B66: ALYGRLEVV (peptide)
peptide: ALYGRLEVV
B66: the peptide exchange yield with HLA-A*02 [1] is ≥ 75%.

B67: YIHNILYEV (peptide)
peptide: YIHNILYEV
With B67, in the assay with HLA-A*02 [1], the peptide exchange yield is ≥ 75%.

B68: KLFEEIREI (peptide)
peptide: KLFEEIREI
Turning to B68, in the assay with HLA-A*02 [1], the peptide exchange yield is ≥ 75%.
